These results are taken from article PMC4820838.

This assay addresses STAT3-NTD-YFP. As to the kind of experiment: pair correlation of molecular brightness (pCOMB); pair correlation of brightness fluctuations along a 64-pixel confocal line scan from cytoplasm to nucleus of live HeLa cells; amplitude calibrated against free GFP, YFP or mCherry; cells stimulated with 10 nM oncostatin M for 15 min.

STAT3-NTD-YFP (domain or fragment), sequence (P40763 2-770): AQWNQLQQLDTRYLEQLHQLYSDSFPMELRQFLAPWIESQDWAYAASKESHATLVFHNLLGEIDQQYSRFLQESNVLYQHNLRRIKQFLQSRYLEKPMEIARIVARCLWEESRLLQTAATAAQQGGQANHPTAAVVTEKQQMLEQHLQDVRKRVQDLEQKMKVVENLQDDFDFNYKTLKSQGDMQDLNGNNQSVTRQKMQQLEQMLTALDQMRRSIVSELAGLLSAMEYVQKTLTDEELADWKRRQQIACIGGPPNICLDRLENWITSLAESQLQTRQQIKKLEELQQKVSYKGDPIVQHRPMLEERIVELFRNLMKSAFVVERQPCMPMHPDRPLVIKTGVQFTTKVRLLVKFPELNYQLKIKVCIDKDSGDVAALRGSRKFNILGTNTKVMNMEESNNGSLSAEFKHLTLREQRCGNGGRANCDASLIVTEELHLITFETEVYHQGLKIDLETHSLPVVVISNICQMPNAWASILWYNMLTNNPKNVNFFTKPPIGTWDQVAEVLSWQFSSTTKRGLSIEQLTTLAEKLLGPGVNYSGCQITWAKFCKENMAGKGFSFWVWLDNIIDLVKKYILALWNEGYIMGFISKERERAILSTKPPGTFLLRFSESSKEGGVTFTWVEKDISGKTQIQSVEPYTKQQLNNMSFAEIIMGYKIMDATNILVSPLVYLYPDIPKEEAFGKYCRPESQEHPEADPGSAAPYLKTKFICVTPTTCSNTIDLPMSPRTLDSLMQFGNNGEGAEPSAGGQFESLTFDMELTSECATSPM

By stoichiometry N is commonly meant the number of molecules, sites or subunits per partner or assembly. The substance STAT3-NTD-YFP (domain or fragment) displayed a stoichiometry N of 2.
